Laboratory results published in publication PMC5076566 (Cell, 2016).

Assays:
[1] = target: the molecule itself; assay: polymerisation and hydrogel formation
[2] = target: Recombinant human vimentin, full length (2-466 AA), assembled into intermediate filaments (human, UniProt P08670 2-466); assay: transmission electron microscopy of filaments mixed with test protein
[3] = target: GFP:hnRNPA1 full length (residue 2-320) (human, UniProt P09651-2 2-320); assay: co-IP
[4] = target: GFP:hnRNPA1 ΔRRM (186-320), the C-terminal LC domain (human, UniProt P09651-2 186-320); assay: co-IP
[5] = target: T1, His-3xFlag tagged D290V hnRNPA2 LCS (181-341 aa) (human, UniProt P22626-2 181-341, D290V); assay: co-IP
T1 sequence (looked up): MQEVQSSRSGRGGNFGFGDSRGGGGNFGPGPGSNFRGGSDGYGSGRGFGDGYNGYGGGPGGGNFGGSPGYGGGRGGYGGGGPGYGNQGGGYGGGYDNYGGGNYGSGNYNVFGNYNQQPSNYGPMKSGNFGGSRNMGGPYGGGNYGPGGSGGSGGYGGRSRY

B1: mCherry:vimentin head domain (2-95) (domain or fragment, human, UniProt P08670 2-95, looked up)
chain: STRSVSSSSYRRMFGGPGTASRPSSSRSYVTTSTRTYSLGSALRPSTSRSLYASSPGGVYATRSSAVRLRSSVPGVRLLQDSVDFSLADAINTE
Q: Does B1 bind [1]?
A: Result: binds

B2: mCherry:neurofilament light isoform head domain (2-100) (domain or fragment, human, UniProt P07196 2-100, looked up)
chain: SSFSYEPYYSTSYKRRYVETPRVHISSVRSGYSTARSAYSSYSAPVSSSLSVRRSYSSSSGSLMPSLENLDLSQVAAISNDLKSIRTQEKAQLQDLNDR
Q: Does B2 bind [1]?
A: Result: binds

B3: mCherry:neurofilament medium isoform head domain (2-104) (domain or fragment, human, UniProt P07197 2-104, looked up)
chain: SYTLDSLGNPSAYRRVTETRSSFSRVSGSPSSGFRSQSWSRGSPSTVSSSYKRSMLAPRLAYSSAMLSSAESSLDFSQSSSLLNGGSGPGGDYKLSRSNEKEQ
Q: Does B3 bind [1]?
A: Result: binds

B4: mCherry:neurofilament heavy isoform head domain (3-100) (domain or fragment, human, UniProt P12036 3-100, looked up)
chain: SFGGADALLGAPFAPLHGGGSLHYALARKGGAGGTRSAAGSSSGFHSWTRTSVSSVSASPSRFRGAGAASSTDSLDTLSNGPEGCMVAVATSRSEKEQ
Q: Does B4 bind [1]?
A: Result: binds

B5: mCherry:peripherin head domain (2-99) (domain or fragment, human, UniProt P41219 2-99, looked up)
chain: SHHPSGLRAGFSSTSYRRTFGPPPSLSPGAFSYSSSSRFSSSRLLGSASPSSSVRLGSFRSPRAGAGALLRLPSERLDFSMAEALNQEFLATRSNEKQ
Q: Does B5 bind [1]?
A: Result: binds

B6: GFP:FUS LC domain (residue 2-214) (domain or fragment, UniProt P35637 2-214, looked up)
chain: ASNDYTQQATQSYGAYPTQPGQGYSQQSSQPYGQQSYSGYSQSTDTSGYGQSSYSSYGQSQNTGYGTQSTPQGYGSTGGYGSSQSSQSSYGQQSSYPGYGQQPAPSSTSGSYGSSSQSSSYGQPQSGSYSQQPSYGGQQQSYGQQQSYNPPQGYGQQNQYNSSSGGGGGGGGGGNYGQDQSSMSSGGGSGGGYGNQDQSGGGGSGGYGQQDRG
Q: Does B6 bind [2]?
A: Result: binds

Q: Does PRPRPRPRPRPRPRPRPRPRPRPRPRPRPRPRPRPRPRPR [PR20HA peptide (20 repeats of PR with an HA epitope tag at the C-terminus)] bind [3]?
A: Result: binds

Q: Does PRPRPRPRPRPRPRPRPRPRPRPRPRPRPRPRPRPRPRPR [PR20HA peptide (20 repeats of PR with an HA epitope tag at the C-terminus)] bind [4]?
A: Result: binds

Q: Does PRPRPRPRPRPRPRPRPRPRPRPRPRPRPRPRPRPRPRPR [PR20HA peptide (20 repeats of PR with an HA epitope tag at the C-terminus)] bind [5]?
A: Result: binds
